Measurements reported in patent US20150258192A1, “COMPOSITIONS AND METHODS FOR PREVENTING OR TREATING CHRONIC LUNG ALLOGRAFT DYSFUNCTION (CLAD) AND IDIOPATHIC PULMONARY FIBROSIS (IPF)” (priority 2014, published 2015).
No end group written: not given here.

Legend:
Test in all cases: Kinase Profiling Assay
Format in all cases: biochemical
Details in all cases: peptide 100 μM
MSSK1(h) = target: T1, MSSK1(h) (Homo sapiens, UniProt Q9UPE1)
T1 construct: purchased Millipore
Summary of the method: (§1)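 Kinase inhibition by MK2 inhibitory peptides was profiled radiometrically, with substrate phosphorylation from labeled ATP read by scintillation after capture on a charged filter. Values are relative to 100% activity and measured in duplicate.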

Ros(h) = Ros(h) (Homo sapiens, UniProt P08922)
Summary of the method: as §1

Lyn(h) = target: T2, Lyn(h) (Homo sapiens, UniProt P07948)
T2 construct: purchased Millipore
Summary of the method: as §1

TAO2(h) = target: T3, TAO2(h) (Homo sapiens, UniProt Q9UL54)
T3 construct: purchased Millipore
T3 sequence (Q9UL54 1-1235): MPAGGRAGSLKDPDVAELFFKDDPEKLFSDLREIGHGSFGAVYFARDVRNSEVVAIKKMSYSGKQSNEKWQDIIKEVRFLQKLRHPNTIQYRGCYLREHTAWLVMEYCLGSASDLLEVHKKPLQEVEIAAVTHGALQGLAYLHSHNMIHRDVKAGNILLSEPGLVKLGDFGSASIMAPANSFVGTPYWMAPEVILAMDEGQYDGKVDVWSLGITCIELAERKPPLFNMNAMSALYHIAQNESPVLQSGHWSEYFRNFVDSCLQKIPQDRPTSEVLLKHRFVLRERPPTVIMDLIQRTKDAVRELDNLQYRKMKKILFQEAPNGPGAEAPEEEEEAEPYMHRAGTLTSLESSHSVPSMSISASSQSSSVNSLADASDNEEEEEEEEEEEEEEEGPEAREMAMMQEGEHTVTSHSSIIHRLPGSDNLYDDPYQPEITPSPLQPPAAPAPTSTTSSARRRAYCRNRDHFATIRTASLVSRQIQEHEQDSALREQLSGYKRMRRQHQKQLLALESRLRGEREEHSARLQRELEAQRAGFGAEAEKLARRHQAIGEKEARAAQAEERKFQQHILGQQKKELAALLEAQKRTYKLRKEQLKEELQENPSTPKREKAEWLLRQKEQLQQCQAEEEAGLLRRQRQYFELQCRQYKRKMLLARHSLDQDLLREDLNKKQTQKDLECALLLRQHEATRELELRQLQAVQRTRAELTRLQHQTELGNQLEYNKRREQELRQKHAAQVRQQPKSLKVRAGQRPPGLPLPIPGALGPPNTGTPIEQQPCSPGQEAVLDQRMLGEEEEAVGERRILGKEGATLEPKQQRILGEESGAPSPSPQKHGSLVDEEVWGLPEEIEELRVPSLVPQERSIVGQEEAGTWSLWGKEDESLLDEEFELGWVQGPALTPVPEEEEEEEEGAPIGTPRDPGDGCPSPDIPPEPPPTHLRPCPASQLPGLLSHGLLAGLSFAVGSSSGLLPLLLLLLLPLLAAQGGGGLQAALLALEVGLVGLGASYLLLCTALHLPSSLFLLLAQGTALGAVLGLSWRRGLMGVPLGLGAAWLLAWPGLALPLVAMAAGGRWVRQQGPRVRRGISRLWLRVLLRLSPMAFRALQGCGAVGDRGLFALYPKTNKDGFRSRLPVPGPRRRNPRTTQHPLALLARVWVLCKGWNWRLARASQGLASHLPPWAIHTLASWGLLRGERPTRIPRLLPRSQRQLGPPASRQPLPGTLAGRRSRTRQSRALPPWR
Summary of the method: as §1

JAK3(h) = target: T4, JAK3(h) (Homo sapiens, UniProt P52333)
T4 construct: purchased Millipore
T4 sequence (P52333 1-1124): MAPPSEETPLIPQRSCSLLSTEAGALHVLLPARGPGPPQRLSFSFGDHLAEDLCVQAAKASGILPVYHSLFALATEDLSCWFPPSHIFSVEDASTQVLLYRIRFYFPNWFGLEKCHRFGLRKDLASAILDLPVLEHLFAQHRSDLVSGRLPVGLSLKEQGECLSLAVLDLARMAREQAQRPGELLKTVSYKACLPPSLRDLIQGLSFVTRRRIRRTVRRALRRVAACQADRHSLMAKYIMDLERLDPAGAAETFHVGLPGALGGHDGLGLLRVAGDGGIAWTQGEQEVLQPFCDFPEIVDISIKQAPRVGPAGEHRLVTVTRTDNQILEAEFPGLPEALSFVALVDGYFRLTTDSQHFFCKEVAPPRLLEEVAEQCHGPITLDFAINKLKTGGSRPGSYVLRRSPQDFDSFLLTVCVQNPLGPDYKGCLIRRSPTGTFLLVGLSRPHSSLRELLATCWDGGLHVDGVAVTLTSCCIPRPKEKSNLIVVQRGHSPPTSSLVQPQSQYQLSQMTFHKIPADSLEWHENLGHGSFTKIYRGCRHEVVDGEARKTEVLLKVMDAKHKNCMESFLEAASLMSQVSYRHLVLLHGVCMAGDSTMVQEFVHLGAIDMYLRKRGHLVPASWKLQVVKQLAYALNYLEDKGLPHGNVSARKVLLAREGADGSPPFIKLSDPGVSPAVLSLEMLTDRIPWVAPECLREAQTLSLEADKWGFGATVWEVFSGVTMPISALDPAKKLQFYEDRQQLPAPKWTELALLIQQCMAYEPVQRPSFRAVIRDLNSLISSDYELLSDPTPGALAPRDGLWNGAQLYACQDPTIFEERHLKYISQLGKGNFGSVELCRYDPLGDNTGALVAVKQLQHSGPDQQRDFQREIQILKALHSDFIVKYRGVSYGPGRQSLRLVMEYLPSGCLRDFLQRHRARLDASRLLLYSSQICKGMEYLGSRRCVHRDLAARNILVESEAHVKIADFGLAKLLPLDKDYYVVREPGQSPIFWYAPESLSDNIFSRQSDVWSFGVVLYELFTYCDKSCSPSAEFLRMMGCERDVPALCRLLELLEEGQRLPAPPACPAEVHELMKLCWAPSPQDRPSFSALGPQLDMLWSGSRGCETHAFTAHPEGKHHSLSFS
Summary of the method: as §1

T2 sequence (P07948 whole entry): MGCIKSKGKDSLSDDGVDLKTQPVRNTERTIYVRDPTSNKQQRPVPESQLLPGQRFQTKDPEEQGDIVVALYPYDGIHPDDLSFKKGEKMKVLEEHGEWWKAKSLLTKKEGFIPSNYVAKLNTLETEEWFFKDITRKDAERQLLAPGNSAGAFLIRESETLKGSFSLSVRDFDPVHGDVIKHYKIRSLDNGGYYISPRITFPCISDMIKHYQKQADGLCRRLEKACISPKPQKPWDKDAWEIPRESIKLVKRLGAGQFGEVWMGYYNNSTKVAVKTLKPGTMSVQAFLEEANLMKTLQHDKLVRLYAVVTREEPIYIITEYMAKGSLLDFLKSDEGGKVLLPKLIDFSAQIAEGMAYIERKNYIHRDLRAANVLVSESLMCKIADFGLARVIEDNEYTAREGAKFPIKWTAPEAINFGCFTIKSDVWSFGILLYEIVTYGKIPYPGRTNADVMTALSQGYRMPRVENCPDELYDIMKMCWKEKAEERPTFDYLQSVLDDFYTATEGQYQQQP
Ros(h), sequence (P08922 28-2347): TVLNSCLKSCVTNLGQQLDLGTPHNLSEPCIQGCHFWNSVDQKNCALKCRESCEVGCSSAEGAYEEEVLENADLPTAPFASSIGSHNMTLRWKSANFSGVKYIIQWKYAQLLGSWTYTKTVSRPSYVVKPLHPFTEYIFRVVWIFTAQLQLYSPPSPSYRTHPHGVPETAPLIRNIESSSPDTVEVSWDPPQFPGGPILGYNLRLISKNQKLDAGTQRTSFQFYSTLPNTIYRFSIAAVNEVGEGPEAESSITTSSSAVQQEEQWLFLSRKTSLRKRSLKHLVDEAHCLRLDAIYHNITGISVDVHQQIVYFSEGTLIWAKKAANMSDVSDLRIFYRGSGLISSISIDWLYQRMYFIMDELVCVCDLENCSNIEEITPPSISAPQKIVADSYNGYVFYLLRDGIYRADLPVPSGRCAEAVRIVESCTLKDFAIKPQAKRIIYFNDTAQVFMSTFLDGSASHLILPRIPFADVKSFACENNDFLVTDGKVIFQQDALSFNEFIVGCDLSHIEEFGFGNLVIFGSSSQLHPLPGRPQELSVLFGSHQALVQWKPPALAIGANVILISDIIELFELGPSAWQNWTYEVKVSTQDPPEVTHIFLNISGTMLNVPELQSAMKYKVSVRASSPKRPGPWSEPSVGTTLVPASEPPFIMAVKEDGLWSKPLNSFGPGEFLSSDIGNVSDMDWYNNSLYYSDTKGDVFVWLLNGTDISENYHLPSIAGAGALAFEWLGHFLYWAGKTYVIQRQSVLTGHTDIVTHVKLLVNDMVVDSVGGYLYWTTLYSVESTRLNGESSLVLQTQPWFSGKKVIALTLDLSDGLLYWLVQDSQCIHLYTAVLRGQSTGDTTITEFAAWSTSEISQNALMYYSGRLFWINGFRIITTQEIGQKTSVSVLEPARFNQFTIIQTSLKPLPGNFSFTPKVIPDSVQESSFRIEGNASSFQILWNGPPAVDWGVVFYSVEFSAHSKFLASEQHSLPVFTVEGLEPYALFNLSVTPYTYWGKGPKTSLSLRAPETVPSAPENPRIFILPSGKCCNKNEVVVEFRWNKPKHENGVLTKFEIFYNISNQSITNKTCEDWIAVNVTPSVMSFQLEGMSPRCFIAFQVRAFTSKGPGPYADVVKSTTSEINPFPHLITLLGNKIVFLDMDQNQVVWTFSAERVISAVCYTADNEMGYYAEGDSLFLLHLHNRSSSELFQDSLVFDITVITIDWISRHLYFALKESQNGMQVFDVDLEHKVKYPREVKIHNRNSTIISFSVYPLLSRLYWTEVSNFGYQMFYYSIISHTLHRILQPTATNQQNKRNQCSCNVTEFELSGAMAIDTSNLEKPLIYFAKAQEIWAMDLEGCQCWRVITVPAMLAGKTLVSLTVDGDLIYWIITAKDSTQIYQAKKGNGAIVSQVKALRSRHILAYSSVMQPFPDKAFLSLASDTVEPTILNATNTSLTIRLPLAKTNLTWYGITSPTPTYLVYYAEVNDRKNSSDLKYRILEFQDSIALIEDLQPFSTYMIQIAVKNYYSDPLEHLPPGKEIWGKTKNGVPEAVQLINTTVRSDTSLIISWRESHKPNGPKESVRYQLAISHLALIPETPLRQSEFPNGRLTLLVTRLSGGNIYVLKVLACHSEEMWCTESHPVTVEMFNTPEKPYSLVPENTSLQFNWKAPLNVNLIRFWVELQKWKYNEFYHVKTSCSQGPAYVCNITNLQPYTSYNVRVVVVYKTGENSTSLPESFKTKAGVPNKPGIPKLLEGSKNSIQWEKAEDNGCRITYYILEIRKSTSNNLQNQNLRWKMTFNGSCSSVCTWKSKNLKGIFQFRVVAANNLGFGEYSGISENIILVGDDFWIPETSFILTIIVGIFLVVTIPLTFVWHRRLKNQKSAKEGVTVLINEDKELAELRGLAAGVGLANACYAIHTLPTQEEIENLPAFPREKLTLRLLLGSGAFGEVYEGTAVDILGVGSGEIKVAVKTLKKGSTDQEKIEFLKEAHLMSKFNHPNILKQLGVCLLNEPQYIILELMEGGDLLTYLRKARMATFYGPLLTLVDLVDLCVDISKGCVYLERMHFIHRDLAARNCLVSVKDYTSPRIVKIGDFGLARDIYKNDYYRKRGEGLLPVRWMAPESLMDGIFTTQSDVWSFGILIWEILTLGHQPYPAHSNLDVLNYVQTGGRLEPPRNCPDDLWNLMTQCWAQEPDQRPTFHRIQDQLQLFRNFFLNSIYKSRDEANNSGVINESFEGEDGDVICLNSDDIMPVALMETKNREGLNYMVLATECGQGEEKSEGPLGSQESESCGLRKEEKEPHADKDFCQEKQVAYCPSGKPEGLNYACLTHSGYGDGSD
T1 sequence (Q9UPE1 whole entry): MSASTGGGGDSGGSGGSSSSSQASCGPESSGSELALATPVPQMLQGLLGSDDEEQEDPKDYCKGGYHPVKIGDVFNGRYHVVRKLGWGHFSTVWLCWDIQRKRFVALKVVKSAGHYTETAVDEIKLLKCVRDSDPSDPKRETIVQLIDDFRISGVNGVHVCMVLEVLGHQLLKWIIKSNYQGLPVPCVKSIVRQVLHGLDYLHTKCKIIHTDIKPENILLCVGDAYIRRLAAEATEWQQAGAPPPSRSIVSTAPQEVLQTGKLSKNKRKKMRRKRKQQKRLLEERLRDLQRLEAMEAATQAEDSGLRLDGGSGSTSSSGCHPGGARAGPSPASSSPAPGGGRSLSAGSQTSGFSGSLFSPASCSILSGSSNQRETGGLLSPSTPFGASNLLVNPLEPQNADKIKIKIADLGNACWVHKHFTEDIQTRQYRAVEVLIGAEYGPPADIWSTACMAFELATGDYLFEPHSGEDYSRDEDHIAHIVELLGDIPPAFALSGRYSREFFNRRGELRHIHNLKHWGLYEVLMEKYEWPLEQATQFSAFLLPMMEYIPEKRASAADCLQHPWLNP

Row | Sequence | % activity (MSSK1(h)) | % activity (Ros(h)) | % activity (Lyn(h)) | % activity (TAO2(h)) | % activity (JAK3(h))
1 | FAKLAARLYRKALARQLGVAA [MMI-0300] | 77% | 95% | 69% | 70% | –
2 | HRRIKAWLKKIKALARQLGVAA (Mammal) [MMI-0500] | 22% | 150% | 31% | 15% | 95%
3 | KAFAKLAARLYRKALARQLGVAA [MMI-0400] | 75% | 99% | 3% | 74% | 122%
4 | YARAAARQARAKALARQLGVAA [MMI-0100] | 82% | – | – | 95% | 150%
5 | YARAAARQARAKALNRQLGVA (Mammal) [MMI-0200] | 100% | 86% | 98% | 93% | –
